# From patent US20240207383
# Target: ComPC1-CRM197 fusion protein
protein,measurement,value
PglS oligosaccharyltransferase (protein) MNSIFKKIKNYTIVSGVFFLGSAFIIPNTSNLSSTLYKELIAVLGLLILLTVKSFDYKKILIPKNFYWFLFVIFIIFIQLIVGEIYFFQDFFFSISFLVILFLSFLLGFNERLNGDDLIVKKIAWIFIIVVQISFLIAINQKIEIVQNFFLFSSSYNGRSTANLGQPNQFSTLILITLFLLCYLREKNSLNNMVFNILSFCLIFANVMTQSRSAWISVILISLLYLLKFQKKIELRRVIFFNIVFWTLVYCVPLLFNLIFFQKNSYSTFDRLTMGSSRFEIWPQLLKAVFHKPFIGYGWGQTGVAQLETINKSSTKGEWFTYSHNLFLDLMLWNGFFIGLIISILILCFLIELYSSIKNKSDLFLFFCVVAFFVHCLLEYPFAYTYFLIPVGFLCGYISTQNIKNSISYFNLSKRKLTLFLGCCWLGYVAFWVEVLDISKKNEIYARQFLFSNHVKFYNIENYILDGFSKQLDFQYLDYCELKDKYQLLDFKKVAYRYPNASIVYKYYSISAEMKMDQKSANQIIRAYSVIKNQKIIKPKLKFCSIEY,"glycosylation with CPS8, Western blot of periplasmic extracts (anti-His)",the ComPC1-CRM197 was also glycosylated by PglS
